Experimental data published in patent US20180230224A1 (KITE PHARMA, published 2018).

Legend:
[1] = target: CD70 on NAMALWA and Raji cells (human) (UniProt P32970); experiment: flow cytometry; Toledo cells stained with PE-conjugated anti-CD70 antibody; open histogram as control
[2] = target: CD70 on NAMALWA and Raji cells (human) (UniProt P32970); experiment: flow cytometry; MV4;11 cells stained with PE-conjugated anti-CD70 antibody; open histogram as control
[3] = target: CD70 on NAMALWA and Raji cells (human) (UniProt P32970); experiment: flow cytometry; U-937 cells stained with PE-conjugated anti-CD70 antibody; open histogram as control
[4] = target: CD70 on NAMALWA and Raji cells (human) (UniProt P32970); experiment: flow cytometry; Raji cells (panel title cut to 'Raj'; panel order given in the legend paragraph 42) stained with PE-conjugated anti-CD70 antibody; open histogram as control
[5] = target: CD70 on NAMALWA and Raji cells (human) (UniProt P32970); experiment: flow cytometry; NAMALWA cells stained with PE-conjugated anti-CD70 antibody; open histogram as control
[6] = target: CD70 on NAMALWA and Raji cells (human) (UniProt P32970); experiment: flow cytometry; EoL-1 cells stained with PE-conjugated anti-CD70 antibody; open histogram as control
[7] = target: T1, recombinant CD70-Fc (Sino Biological) (UniProt P32970 39-193, limits assumed); experiment: flow cytometry; donor 1 T cells transduced with the CAR, day 14 post stimulation, stained with recombinant CD70-Fc and goat anti-human IgG Fc PE; mock-transduced cells as control
T1 construct: Bought reagent; not shown: Fc part
T1 sequence (looked up): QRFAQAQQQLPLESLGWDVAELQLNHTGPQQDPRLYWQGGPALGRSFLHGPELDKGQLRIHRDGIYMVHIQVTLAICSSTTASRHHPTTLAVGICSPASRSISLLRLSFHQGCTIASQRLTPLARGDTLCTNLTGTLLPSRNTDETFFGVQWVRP
Experimental: Peripheral blood mononuclear cells (PBMCs) were isolated from two different healthy donor leukopaks (Hemacare) using Ficoll®-Paque density centrifugation according to the manufacturer's instructions. PBMCs were stimulated using OKT3 (Muromonab-CD3, 50 ng/ml, Miltenyi Biotec) in R10 media supplemented with IL-2 (300 IU/ml, Proleukin®, Prometheus® Therapeutics and Diagnostics). Forty-eight hours post-stimulation, cells were transduced using lentivirus containing the different CD70 CAR constructs at a multiplicity of infection (MOI) of 10. Cells were maintained at 0.5×10⁶-2.0×10⁶ cells/ml prior to use in activity assays.
At day 14 post-stimulation, transduced T cells were stained with recombinant CD70-Fc (Sino Biological) in stain buffer (BD Pharmingen) for 30 minutes at 4° C. Cells were then washed and stained with goat anti-human IgG Fc PE (Jackson ImmunoResearch) in stain buffer for 30 minutes at 4° C. Cells were then washed and resuspended in stain buffer with propidium iodide (BD Pharmingen) prior to data acquisition. All experiments were performed in two different donors.

anti-CD70 antibody conjugated to PE (BD Pharmingen)
percent of cells in the positive gate (number in the panel) [1]: 99.9%
percent of cells in the positive gate (number in the panel) [2]: 43.1%
percent of cells in the positive gate (number in the panel) [3]: 96.6%
percent of cells in the positive gate (number in the panel) [4]: 100%
percent of cells in the positive gate (number in the panel) [5]: 100%
percent of cells in the positive gate (number in the panel) [6]: 64.6%

B1: 8G1.1_C28T_28z (other)
chain: QEQLVESGGGVVQPGRSLRLSCAASGFTFSSYGMHWVRQAPGKGLEWVAVTWYDGSNKYYGDSVKGRFTISRDNSKNTLYLQMNSLRAEDTAVYYCARDLLRGVKGYAMDVWGQGTTVTVSSGGGGSGGGGSGGGGSEIVLTQSPGTLSLSPGERATLSCRASQSLRRIYLAWYQQKPGQAPRLLIYDVFDRATGIPDRFSGGGSGTDFTLTISRLEPEDFAVYYCQQYSDSPFTFGPGTKVDIKRAAALDNEKSNGTIIHVKGKHLCPSPLFPGPSKPFWVLVVVGGVLACYSLLVTVAFIIFWVRSKRSRLLHSDYMNMTPRRPGPTRKHYQPYAPPRDFAAYRSRVKFSRSADAPAYQQGQNQLYNELNLGRREEYDVLDKRRGRDPEMGGKPRRKNPQEGLYNELQKDKMAEAYSEIGMKGERRRGKGHDGLYQGLSTATKDTYDALHMQALPPR
notes: also called CD70 CAR C3L; 28T-28z comprising an 8G1 scFv
% CAR (+) [7]: 42.2%

B2: 1C8.1.001_C28T_4Bz (other)
chain: QVQLQESGPGLVKPSQTLSLTCTVSGDSIISGGYYWSWIRQHPGKGLEWIGYIFYSGSTDYNPSLKSRVTISVDTSKNQFSLKLSSVTAADTAVYYCARSGYSYALFDHWGQGTLVTVSSGGGGSGGGGSGGGGSDIQMTQSPSSLSASVGDRVTISCRASQFIGRYFNWYQQQPGKAPKVLIYAESSLQSGVPSRFSGSGSGTEFTLTISSLQPEDFARYYCQQSYSTPFTFGQGTKVEIKRAAALDNEKSNGTIIHVKGKHLCPSPLFPGPSKPFWVLVVVGGVLACYSLLVTVAFIIFWVRFSVVKRGRKKLLYIFKQPFMRPVQTTQEEDGCSCRFPEEEEGGCELRVKFSRSADAPAYQQGQNQLYNELNLGRREEYDVLDKRRGRDPEMGGKPRRKNPQEGLYNELQKDKMAEAYSEIGMKGERRRGKGHDGLYQGLSTATKDTYDALHMQALPPR
notes: Chimeric antigen receptor on lentivirus-transduced human T cells; 1C8 scFv, CD28T hinge/TM, 4-1BB, CD3 zeta; also called 28T-4Bz comprising a 1C8 scFv
% CAR (+) [7]: 0.27%

B3: 1C8.1.001_C28T_28z (other)
chain: QVQLQESGPGLVKPSQTLSLTCTVSGDSIISGGYYWSWIRQHPGKGLEWIGYIFYSGSTDYNPSLKSRVTISVDTSKNQFSLKLSSVTAADTAVYYCARSGYSYALFDHWGQGTLVTVSSGGGGSGGGGSGGGGSDIQMTQSPSSLSASVGDRVTISCRASQFIGRYFNWYQQQPGKAPKVLIYAESSLQSGVPSRFSGSGSGTEFTLTISSLQPEDFARYYCQQSYSTPFTFGQGTKVEIKRAAALDNEKSNGTIIHVKGKHLCPSPLFPGPSKPFWVLVVVGGVLACYSLLVTVAFIIFWVRSKRSRLLHSDYMNMTPRRPGPTRKHYQPYAPPRDFAAYRSRVKFSRSADAPAYQQGQNQLYNELNLGRREEYDVLDKRRGRDPEMGGKPRRKNPQEGLYNELQKDKMAEAYSEIGMKGERRRGKGHDGLYQGLSTATKDTYDALHMQALPPR
notes: Chimeric antigen receptor on lentivirus-transduced human T cells; also called 28T-28z comprising a 1C8 scFv
% CAR (+) [7]: 25.4%

B4: 6E9.1_C28T_4Bz (other)
chain: QVHLVQSGAEVKKPGASVRVSCKASGYTFTSYYLHWVRQAPGQGLEWMGIVDPSGGSTSYDQKFQGRFTMTRDTSTSTVYMELSSLRSEDTAVYYCARDYGDYVFDYWGQGTLVTVSSGGGGSGGGGSGGGGSQSVLTQPPSASGTPGQRVTISCSGSSSNIGTNTVNWYQQLPGTAPQLLIYINNQRPSGVPDRFSGSKSGTSASLAISGLQSEDEADYYCATWDDSLNGPVVGGGTKLTVLGAAALDNEKSNGTIIHVKGKHLCPSPLFPGPSKPFWVLVVVGGVLACYSLLVTVAFIIFWVRFSVVKRGRKKLLYIFKQPFMRPVQTTQEEDGCSCRFPEEEEGGCELRVKFSRSADAPAYQQGQNQLYNELNLGRREEYDVLDKRRGRDPEMGGKPRRKNPQEGLYNELQKDKMAEAYSEIGMKGERRRGKGHDGLYQGLSTATKDTYDALHMQALPPR
notes: Chimeric antigen receptor on lentivirus-transduced human T cells; 6E9 scFv, CD28T hinge/TM, 4-1BB, CD3 zeta; also called 28T-4Bz comprising a 6E9 scFv
% CAR (+) [7]: 4.48%

B5: 6E9.1_C28T_28z (other)
chain: QVHLVQSGAEVKKPGASVRVSCKASGYTFTSYYLHWVRQAPGQGLEWMGIVDPSGGSTSYDQKFQGRFTMTRDTSTSTVYMELSSLRSEDTAVYYCARDYGDYVFDYWGQGTLVTVSSGGGGSGGGGSGGGGSQSVLTQPPSASGTPGQRVTISCSGSSSNIGTNTVNWYQQLPGTAPQLLIYINNQRPSGVPDRFSGSKSGTSASLAISGLQSEDEADYYCATWDDSLNGPVVGGGTKLTVLGAAALDNEKSNGTIIHVKGKHLCPSPLFPGPSKPFWVLVVVGGVLACYSLLVTVAFIIFWVRSKRSRLLHSDYMNMTPRRPGPTRKHYQPYAPPRDFAAYRSRVKFSRSADAPAYQQGQNQLYNELNLGRREEYDVLDKRRGRDPEMGGKPRRKNPQEGLYNELQKDKMAEAYSEIGMKGERRRGKGHDGLYQGLSTATKDTYDALHMQALPPR
notes: Chimeric antigen receptor on lentivirus-transduced human T cells; also called 28T-28z comprising a 6E9 scFv
% CAR (+) [7]: 4.45%

B6: 8G1.1_C28T_4Bz (other)
chain: QEQLVESGGGVVQPGRSLRLSCAASGFTFSSYGMHWVRQAPGKGLEWVAVTWYDGSNKYYGDSVKGRFTISRDNSKNTLYLQMNSLRAEDTAVYYCARDLLRGVKGYAMDVWGQGTTVTVSSGGGGSGGGGSGGGGSEIVLTQSPGTLSLSPGERATLSCRASQSLRRIYLAWYQQKPGQAPRLLIYDVFDRATGIPDRFSGGGSGTDFTLTISRLEPEDFAVYYCQQYSDSPFTFGPGTKVDIKRAAALDNEKSNGTIIHVKGKHLCPSPLFPGPSKPFWVLVVVGGVLACYSLLVTVAFIIFWVRFSVVKRGRKKLLYIFKQPFMRPVQTTQEEDGCSCRFPEEEEGGCELRVKFSRSADAPAYQQGQNQLYNELNLGRREEYDVLDKRRGRDPEMGGKPRRKNPQEGLYNELQKDKMAEAYSEIGMKGERRRGKGHDGLYQGLSTATKDTYDALHMQALPPR
notes: Chimeric antigen receptor on lentivirus-transduced human T cells; 8G1 scFv, CD28T hinge/TM, 4-1BB, CD3 zeta; also called 28T-4Bz comprising an 8G1 scFv
% CAR (+) [7]: 49.8%
